System: MS2 coat protein
Experiment: apparent KD of MS2 coat protein; higher = weaker reporter binding
Conditions: Eterna round: R107
Description: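 RNA-MaP round R107: designed RNA switches with theophylline, tryptophan, arginine or FMN aptamers are transcribed on-chip within common flanks. They are titrated with SNAP-549-labelled MS2 coat protein in RNA-MaP buffer (100 mM Tris pH 7.5, 80 mM KCl, 4 mM MgCl2), without ligand or with the indicated ligand. Median apparent KD per design.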

[1] = input ligand: theophylline 20 uM
[2] = input ligand: theophylline 2 mM
[3] = input ligand: tryptophan 2.4 mM

Sequence | apparent KD of MS2 coat protein (input ligand: arginine 13.2 mM) [nM] | apparent KD of MS2 coat protein (input ligand: none) [nM] | apparent KD of MS2 coat protein [1] [nM] | apparent KD of MS2 coat protein [2] [nM] | apparent KD of MS2 coat protein [3] [nM]
ACGGAUCGGAAACGAUCCGCGGCUAGGGUGCGAGGACCGGUACGGCCGCCACUCGGGUAACAUGAGGAUCACCCAUGUCUGAUUU [ETA NP+V+V2 #14] | 50.6 | 123 | 116 | 118 | 587
ACGUAAAGCAGAAGGAGCGUCUUAAUUCUACAUGAGGAUCACCCAUGUUUACAUUGAAUAUGACAGGUAGGUCGCUGAAGUACGA [JR_SSArginiB_Sub001] | 23.5 | 33.9 | 27.5 | 30.8 | 23.8
ACGUAAUGCAGAAGGAGCGUCAUUCUCUUACAUGAGGAUCACCCAUGUUACAUGGUUUUAUGACAGGUAGGUCGCUGAAGUACGA [JR_SSArginiB_Sub004] | 71.4 | 105 | 122 | 138 | 86.6
ACGUAAUGCAGAAGGAGCGUCGAUCUCAUACAUGAGGAUCACCCAUGUUACAUGGUUGGACGACAGGUAGGUCGCUGAAGUACGA [#06 Exclusion - Arginine B] | 24.2 | 20.6 | 35.5 | 27.4 | 21.4
ACGUCACGUUUACUCGUGGUUUCGAUCGAUACCAGUAGCGAGAGUUACCCUUGGCAGCGACAUGAGGAUCACCCAUGUGCGAAGA [XTheo A #26] | 12.2 |  | 14 |  | 11.7
ACGUCACGUUUACUCGUGGUUUCGUUCGAUACCAGUAGCGAGAGUUACCCUUGGCAGCGACAUGAGGAUCACCCAUGUACGAAGA [XTheo A #24] | 12.7 |  | 15 |  | 12.9
ACGUCUCGUUUACUCGUGGGUUAGCUCGAUACCAGUAUUCAAACUUACCCUUGGCAGCGACAUGAGGAUCACCCAUGUGCGAAGA [XTheo A #23] | 17.3 |  | 20.5 |  | 17.5
ACGUGGAAAAUUUGUGGUGCUGCCUCAGGCCGAGGACCGGUACGGCCGCCACUCGUACAUGAGGAUCACCCAUGUCGAGUCACUG [Isanso] | 19.2 |  | 48 | 47.4 | 
ACUAGGCUCGGAAACGAGCCUAGGACAGAAGGAGCGUGGAUUAACACAGGUAGGUCGCUGACAUGAGGAUCACCCAUGUAUUAUU [SSAA #2] | 24.5 | 24.9 | 38.6 | 25.3 | 28.9
ACUAGUUGUGCAGAUACCAGACAUGAGGAUCACCCAUGUUUGGGAUCUUCGGAUCUUCCUGUCCCUUGGCAGCUGUACAUCUAGA [Omei Theo B Exc v3] | 62.6 |  | 178 |  | 125
ACUAGUUGUGCAGAUACCAGACAUGAGGAUCACCCAUGUUUGGGAUGUUCGCAUCUUCCUGUCCCUUGGCAGCUGUACAUCUAGA [Omei Theo B Exc v4] | 60.9 |  | 145 |  | 86.2
ACUAGUUGUGCAGAUACCAGGCACGAGGAUCACCCGUGUUUGGGAUGUUCGCAUCUUCCUGUCCCUUGGCAGCUGUACAUCUAGA [Omei Theo B Exc v9] | 29.6 | 30.9 | 54.3 | 155 | 37.4
ACUCGGUAUGUCUAAUACCGAGAGUAUGAUACCAGUAUGGUGACAUACCCUUGGCAGCAUGGGACAUGAGGAUCACCCAUGUGUU [SSThA NP+V+V2 #10 Same Structure] | 119 |  | 465 |  | 588
ACUGACUUUACGGCCGCCACUCAUUGGCACGUGUCAUGUCAACAUGAGGAUCACCCAUGUAUGAUGAGGACCGGGUAAGGGCUGC [theeternabot_exclusion_MS2_Trp_B_2] | 8.71 |  | 13 | 11 | 
ACUUCAUGAGGUGAUACCAGCCAAUGACAUGAGGACAUGAGGAUCACCCAUGUUUAUGUAGGCCCUUGGCAGCAUUGUAACAUGA [Same State Theophylline B 4] | 101 |  | 126 |  | 28.4
AGAACUUUGGUGGAUACCAGCUUCUGGCCAUCCUUCAAAUACAUGAGGAUCACCCAUGUUAGCCCUUGGCAGCCAACAUAGACUG [theeternabot_exclusion_MS2_Theo_B_44] | 21.7 |  | 33 |  | 21.6
AGAAUAACACAUGAGGAUCACCCAUGUGAUACCAGCUAGGAAACUAGCCCUUGGCAGCACAUAAUCCUCAUGAAUGUGCUGAAUA [(M1)-(M2)-(T1)-(T2)-(M)'-(T)'_Design3_2/19/17] | 37.3 |  | 121 |  | 59.7
AGAAUAACAUGAGCAAAGCUCAUGUGCGAAGGAGCGGCGGAAACGCCAGGUAGGUCGCGCACAUGAGCAUCAGCCAUGUGUACCA [Omei Arginine B SS A v5] | 11.5 | 30.7 | 201 | 65.8 | 58.9
AGAAUACAUGUUUUAAUACGGAAAACUGAUACCAGUGUAUCUAUUCACCCUUGGCAGCAGAGACAUGAGGAUCACCCAUGUAUUA [JR_Nu_SSTheophyA_Sub019] | 28.1 |  | 41.2 |  | 46.6

Sequence | apparent KD of MS2 coat protein (input ligand: arginine 13.2 mM) [nM] | apparent KD of MS2 coat protein (input ligand: none) [nM] | apparent KD of MS2 coat protein [1] [nM] | apparent KD of MS2 coat protein [2] [nM] | apparent KD of MS2 coat protein [3] [nM]
AGACAUGAGGAUCACCCAUGUAGUACGGAUACCAGAUCCAGAUGUAUCCCUUGGCAGCUGUGGUACAGCGUUGCAACGCUCCUAG [Exclusion - Theophylline A (Freestyle 18)] | 15 |  | 23.9 |  | 15.2
AGACAUGAGGAUCACCCAUGUAGUACGGAUACCAGAUCCAGAUGUAUCCCUUGGCAGCUGUGGUACAGCGUUGCAUCGCUCCUAG [Exclusion - Theophylline A (Freestyle 19)] | 13.1 | 16.6 | 20.6 | 20.1 | 14.4
AGACAUGAGGAUCACCCAUGUAGUAUGGAUACCAGAUCCAGAUUUAUCCCUUGGCAGCUGUGGUACAGCGUUGGAUCGCUCCUAG [Exclusion - Theophylline A (Freestyle 12)] | 22.3 |  | 34.6 |  | 27.8
AGACAUGAGGAUCACCCAUGUAGUAUGGAUACCAGAUCCAGAUUUAUCCCUUGGCAGCUGUGGUACAGUGAUGGAUUGCUCCUAG [Exclusion - Theophylline A (Freestyle 9)] | 30.4 |  | 52 |  | 32.7
AGACAUGAGGAUCACCCAUGUAGUAUGGAUACCAGAUGUAGAUUAGUCCCUUGGCAGCUGUGCUGAAGUGAUGCAUUGCUCCUAG [#15 Exclusion-TheophyllineA] | 21.9 | 22.1 | 33.5 | 24.2 | 23.6
AGAUGAGUCACGGCCGCCACUCACUACAGGUUCACCCUUGGUUAACAUGAGGAUCACCCAUGUGGGAGGACCGGGUGAUGAGCAU [XTryp B #4] | 18.5 |  | 32.7 | 25.6 | 
AGAUGAGUCACGGCCGCCACUCUUAUCAGGAUCACCCAUGGUUAACAUGAGGAUCACCCAUGUCUGAGGACCGGGUGAUGAGCAU [XTryp B #2] | 18.3 |  | 31.4 | 25.3 | 
AGAUGAGUCACGGCCGCCACUCUUCACAGGUUCACCCUUGGUUAACAUGAGGAUCACCCAUGUGGGAGGACCGGGUGAUGAGCAU [XTryp B #5] | 14.2 |  | 17.3 | 15.6 | 
AGAUGUAGCGGAAGGAGCGACUUGAGGAUCACCCAAGUCUCCCGUUGUGGGAGUUCCUUAGGUCAGGUAGGUCGCCGUUACGUCA [Omei Arg B SS B v3] | 31.6 | 145 | 154 | 310 | 82.8
AGAUUACAUGUUUUAAUAAGAUAAACUGAUACCAGUGUAUAUAUUCACCCUUGGCAGCAGCAACAUGAGGAUCACCCAUGUAUUA [JR_SSTheophyA_Sub015] | 14.4 |  | 18.7 |  | 16.7
AGAUUCGACACGGCCGCCACUCGUGGAGGAUUACCGAGUGUCGAACAUGAGGAUCACCCAUGUACGAGGACCGGGUGUUGAGUCU [XTryp B #15] | 23.5 | 27.3 | 32.2 | 28.5 | 179
AGAUUCGACACGGCCGCCACUUGUGGUGGAUUAUCCUGUGUCGAACAUGAGGAUCACCCAUGUACAAGGACCGGGUGUUGAGUCU [XTryp B #20] | 60.2 |  | 151 | 136 | 
AGCAAGUUCGGAAGGAGCGGUACAUGAGGAUCACCCAUGUAUUCAAUCGUGAUCGGAACGUGCCAGGUAGGUCGCCGAAUGCGUC [XArg-B1] | 13.3 | 13.1 | 23.1 | 15.9 | 15
AGCACGGUGAUGGUAGCCGGACGCUAGGUACGAGGACCGGUACGGCCGCCACUCGAAGUCCUACGACAUGAGGAUCACCCAUGUA [Same State Trp A GF13] | 37.9 |  | 59.2 | 75.2 | 
AGCAGCUCGAAAGAGUUGCACUCAUGUGAAGGAGCGCGCGUUAGCGCAGGUAGGUCGCACAUGAGGAUCACCCAUGUACCUUCUA [MAT - Exclusion Arginine A - Mod of Eli - D15] | 87.3 | 173 | 211 | 268 | 108
AGCAGUACAACAGAUACCAGACUUUUCAUGCCUUUAAUUACAUGAGGAUCACCCAUGUUUGUCCCUUGGCAGCUGUUGUACUGCA [JR_ExcTheophyB_Sub011] | 29.5 |  | 62.8 |  | 39.9
AGCAUGUUAUCAGAUACCAGACAUCUUUUAAUACAUAUUACAUGAGGAUCACCCAUGUUGGUCCCUUGGCAGCUGAAAUAUUUCA [JR_Nu_SSTheophyB_Sub023] | 124 |  | 223 |  | 360
AGCCCGGGAGCGGCCGCCACUGGAGGCUUUGCGCGACAUGAGGAUCACCCAUGUGUGCCCGGCGUUAGGACCGGGCUCGCGUGGU [#1 Same State - Tryptophan B Attempt #21 (HarryS)] | 27.8 | 33.4 | 32.5 | 55.3 | 46.9

Source: the supplement of paper PMC9170038
